Assay: label from the status in PepcDB records
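Also: failed if final PepcDB status was selected cloned or expressed and not failed if soluble or beyond.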

Sequence: MTAASETFDVVVVGAGPAGGQCARRLAQAGRTVLLVDQLKTWTDHDFSSGGTPLETLDRFQLPDRVIGSRWSQLRVVTTREDHTWKSARSLGCVLDFAALRQFLAEETTTHGGSVRLGWQYRDRQQLTDGRWQIRFRDRLTSSDRWVTSRAVVDATGSARKVIYTAAEPRPDYLRGVGIEYLIEVPETVYQRFADALHFYLGHHWLPKGYSWIFPMQSGRLKVGACWFHGDHRFLKPDQPLRHYIDLLLTEQVQCPDYRLVDVHGAAIDYSGDRCDRHVQASILGIGDAVSAINFLGGEGIRHGLESADRAAQVLDAWLQGTVPDLSSYEQQIRRRFDRLWTLSLRLGMKKYLQDSDAKIDRIVRWCCALSTDDLMAILFDYRFQRLGRRLGRFFWLSVMTRLRLRWQRWRRPSHVA
- protein production: failed

Sequence: MATDAPPPSKEEPPSQEEHRLPSAEEFSEVQQSAEFAELRRSFRSFAFPLTVAFVAWYLLYVLLSNYAGGFMGTKLFGNINVAFVFGIAQFVTTFLIAWWYSRHAAAKLDPKAEAIKTRMEGGA
- protein production: failed

Sequence: MKYYPFSYYRSINAADLYENIKAYTVLDVREPFELIFGSIANSINIPISELREKWKILERDKKYAVICAHGNRSAAAVEFLSQLGLNIVDVEGGIQSWIEEGYPVVYGRESAEDLEHHHHHH
- protein production: not failed

Sequence: MAYDLWYWDGIPGRGEFVRLALEAGKIPYRDRAREPGEDMLDDMRRRRDTPPFAPPYLVADGMTIAQTANILLFLGVEHGLAPPDRAGRLWVNQLQLTIADLTAEAHDVHHPVAAGLYYEDQQDVALRRAADFRETRMPKFMQYFEQALDRPGGWLTDMGRWSYADLSLYHVVEGLLHAFPRRMRTLVHRYPRLMALHARVAELPELRGYLASDRRLPFGDGIFRHYPELDGA
- protein production: not failed

Sequence: RDEVAGILRLGLSQSFGTMHIIPAIDKLRNQYPDLQVEVRLFDHQADMLKDGLDLWVTNFEDLPEGYVAQRLADSNFVLAASPDYLIDKKVPHHPLDLVEHNCLTYQ
- protein production: failed

Sequence: MQVLHVCSEMFPLLKTGGLADVIGALPAAQIADGVDARVLLPAFPDIRRGVTDAQVVSRRDTFAGHITLLFGHYNGVGIYLIDAPHLYDRPGSPYHDTNLFAYTDNVLRFALLGWVGAEMASGLDPFWRPDVVHAHDWHAGLAPAYLAARGRPAKSVFTVHNLAYQGMFYAHHMNDIQLPWSFFNIHGLEFNGQISFLKAGLYYADHITAVSPTYAREITEPQFAYGMEGLLQQRHREGRLSGVLNGVDEKIWSPETDLLLASRYTRDTLEDKAENKRQLQIAMGLKVDDKVPLFAVVSRLTSQKGLDLVLEALPGLLEQGGQLALLGAGDPVLQEGFLAAAAEYPGQVGVQIGYHEAFSHRIMGGADVILVPSRFEPCGLTQLYGLKYGTLPLVRRTGGLADTVSDCSLENLADGVASGFVFEDSNAWSLLRAIRRAFVLWSRPSLWRFVQRQAMAMDFSWQVAAKSYRELYYRLK
- protein production: failed

Sequence: MKSAVEQLSTYKSVHLNPRNIQTHFIGIPLIIWSAFLLFATIRIPLGDADNVNLGMILAIGIMLYYLRLHAKLALGLALFLAPVIYTTELVAHSENAFGLAITVFIVGWIFQLIGHRYEKAKPAFVDDLNQLLIGPFFLMAEVYFMLGLEKQLNAEITPIAIEKRRALEAHLKTK
- protein production: failed

Sequence: MHPALVLAAIALIAIKLDPRFVLGLLVLLTLIYGKKRGFSLKLRNVTEDESYFNAFLFSTILSALSCFSLPKDVVFASIFLISVHNYRKNALWNIAVYTTASLLYFLCYHAVNGVELRLAHTFFISLSGGLTAALVESVDTNADRRLTLLLAISSVFTIFKMYVPSASIYSLAFAFLLSFFVSLLALYAKVADESGLMSATIVGTTLILFADIRFFAVILLFYALGSAITKYKYSVKLERGIAEQAGGARGYANVFGNSLAPLFFAVQFGVSGDAIFAAAFVAAVAAALADTMASEIGKAEEKVYLITNFSRVEPGTSGGISVKGEFAALFGCIVTALLSLLLGIIGFDVLLPVTLSAFAGVHIDSLLGATLEKKGYLTNSAVNFLGTLSAGIICVLLLLPLL
- protein production: failed

Sequence: MRKDWGDGPGGLGTAMQDKILLIEDSVALSMLLRTRLSDETEAEVVHCASMAEADALMQANNFTLALTGLNLPDAPKGEILTLLSERKVPAIVFTATVDEEARKRYAEKKIIDYIVKDGHRTVDAVVKTVDRIMTNKRFSVLVVDDARTARSGLVEILERQNFKVSEAHSGNRALEILSQDPSIQLVITDYHMPDMDGYELTRRIRDSRSSEDLRVIGISSSTDRLLSASFLKAGASDFVYRPFVPEELQCRIDNNIETLKQLKRLRELAERDHLTGLPNRRSFFERTRALMDVINDNDESGAVAILDIDHFKKINDTLGHDAGDRALKKLAELLQGMCDEQRHIPARLGGEEFAVFLRGLDARAAYAFCEELREQVEKNGRQLSGSSLALTISLGVVEIEKGEPFDNQLNAADQLLYLAKANGRNRVYSDIMIQEGLQKIGLNG
- protein production: failed

Sequence: MIPIVDSRIGAYLDGLLPEADPVVAAMEQIARERNIPIVDRQTGRLLYLLARIKQPQLVVVPGDGLGCASWWFARAISISSRVVMIDPDRDNVEHARRMLHDNGLIDRVELQVGDPLGIAAGQRDIDILFMDCDVFNGADVLERMNRCLAKNALLIAVNALRRGSVAESHEDPETAALREFNHHLSRRRDFFTTIVPVGNGVLLGYRLS
- protein production: not failed

Sequence: MSNVSALPIQPETTPSGGGSVRDRVSPQEWEVRVKLAAAYRLAALKRWTDHIYTHFSARVPGPDEHFLINAFGLLFDEITASNLVKVDIDGTIVDDPTGLGINYAGYVIHSAIHAARHDLQAVLHTHTRDGIAVSAQKGGLLPISQHSIAFSGRVAYHGYEGIALDLSERERLVADLGDKSVMILRNHGLLTGGVSVEHAFQQLHALEYACNIQIAAQSAGNDELVFPPQEVIARVEEQAKVIKDGHGPGVARHWNALIRELERSGTDYRE
- protein production: failed

Sequence: SGRLFVRNLSYTSSEEDLEKLFSAYGPLSELHYPIDSLTKKPKGFAFVTFMFPEHAVKAYAEVDGQVFQGRMLHVLPSTIKKEASQ
- protein production: not failed

Sequence: VPGILMCEIFIRANQRSYSVQARSLRLHGVATSVRLEQLFWDVLEEIAARDGMRVTQLIERLYDELVQYRGEAANFTSFLRVCCLRYQVLQAEGRIPADATVPIRSLDAQAVLRGLPANLYDSR
- protein production: not failed

Sequence: MQLTSQAFSYGRPIPKKYSCQGVGISPPLSFSDVPREAKSLVLIVEDPDVPPSVREDGLWIHWIVYNLSPVVSNLAEGAQIFAVQGLNTAGEIGYCPPCPPDAKHRYYFYAYALDVVLSDEEGVTKEQLLEAMDGHIIATAELMGTYEKD
- protein production: not failed

Sequence: MILPEYNETDFMQAVINAAPTPIFYKDAQGRYLGCNKAFEEYIGLNREQLIGKSVLELFDDELARTYFEADNALFERKGTQIYEAKVEYADGTTHDVMFHKAYFHAEGIEGIVGSILDITERKKAEKSLEQLALSDSLTGLDNRYSLMKSLKHSLLRQHRENFTLAFLMLDLDGFKQINDNYGHPVGDALLIEVANKLKNHFRESDVIARVGGDEFSVILENIHSTESLIVLANNILAEFLKPFVIDNNKFTIGISIGIATSSFSECSSEDIIKHADAALYQVKNSGKGSYHLTVVN
- protein production: failed

Sequence: MTNWLIAYQGEPGAYSEIAALRFGEPLPCESFDDVFSAVTEQKADYAVIPIENSLGGSIHQNYDLLLRRPVVILAETFVKVEHCLLGLPGASVETATKAMSHPQALVQCHNFFATHPQIRAEAAYDTAGSAKMVAESRDKSALAIASKRAGELYGLDILKENLADEEWNITRFFCIAHENN
- protein production: not failed

Sequence: MAKTGDPARAVTPPAIGTLDFALDRSSPVPLYYQLARQLEAAIEHGVLAPGNLLGNEVDLSVRLGLSRPTVRQAIQSLVDKGLLVRRRGVGTQVVHSQVRRPLELSSLYDDLEAAGQDPGTRVVRNEDVPATAEVAAALGVTEGTGVTVLERLRLTHGQPVAMLCNHLPAGLLELDDARLESTGLYRMMRARGITLHSARQTVGARIASREEAERLGEREGAALLTMRRIAYDDTGRPVEYGTHVYRASRYAFDFQLLVRN
- protein production: not failed

Sequence: MDFDTIQIDYEKEETVMIGRAADKIFTRVFIFLIMTVYFWIYTVAGLVVLGIGPAFRTVTEMHMDKQWDYRLYHFKEGWQRFKRHFWQMNLHTWLFLGVGAVLAYNLYLSLSIHTLWIIFIQFIIVFALILDFSLAIFTVMLRSRYDVAFKDAIKLAIVQFFSNFTQLLTFIIGTIVLIVISLKWPGMILFLSPGIYMVGADRLSRRWYDKIDKMLGAV
- protein production: failed

Sequence: MADDQGRGRRRPLNEDDSSTSRGSGDGPRVKVFRGSSSGDPRADPRIEASRERRALEEAPRREGGPTERKPWGDQYDYLNTRPAELVSKKGTDGVPVMLQTNFFRLKTKPEWRIVHYHVEFEPSIENPRVRMGVLSNHANLLGSGYLFDGLQLFTTRKFEQEITVLSGKSKLDIEYKISIKFVGFISCAEPRFLQVLNLI
- protein production: failed

Sequence: MLEATNTPSKTEEPAAPVNPALAAEAKIARIAVTVFPLLVVVAGVLGFLIPDLFKPMGVAVPYLLGVIMFCMGLTLTPPDFASVARRPWAVALGIVAHYVIMPGAGWLIAVLLQLPPELAVGLILVGCAPSGTASNVMAFLAKGDVALSVAVASVSTLIAPIVTPTLTLFLAGSFLHIDAGAMVMDIVKTVLLPVIAGLLARLFLSKLVAKVLPALPWASAVVISLIVAIVVAGSASKIVAAGAIVFLAVVLHNGFGLGLGYLAGKLGRLDDKARRALAFEVGMQNSGLAATLATAHFSPLAALPSAVFSLWHNISGAIVAAWLARRPLKD
- protein production: failed

Sequence: MVTLSDPNRRSRRIKRITIVGCLGNLLLTIGKFFSGFVGHSGAMIADAVHSLSDLLTDFVVFIFISISGKPSDKNHDYGHGKFETLATAIIAVTLIIIGAMLCSDGLTKVYRYLRFGDELARPGLIALLMAFVSIVAKEWLFRITRCVGKEENSRSVIANAWHHRSDAYTSVATFIGIGCAFLLGRGWMILEPLSAAVVSVFIIKVGFQMAVPAFRDLLEQSLPDDIEEEIEKIICSESMVKGVRRIRTRNIGNYYAVEADILMDGGLSVALSHAATQRVEKLLRGRYGQPTHIVIHVEPFS
- protein production: failed

Sequence: MIGEQPGDIFRRGEILNHTYEIEGVLGRGGTGEIYRARNLISGRIVAVKALNRRFSGNDDYIGLMRREEQLRDVIDDAVVRYTECSRSDGGHVFLVMDHIEGPSLAQAMEAGRIEARDLLIVAHRVAEGLRAAHRHGIVHRDLSPDNIILRGGAPERATIIDFGIAKDLSAGAQTIVGNDFAGKYEYAAPEQIDGRAEPRSDLYALGATLLAAFRGEAPFAGATPGEIVRRKGRPLDTEGVPEPLRGLIDRLAAPEAERRPASAAAVVEELDRLLRPQAEPDRRRRVWPALAALLLLAVLAVGGWIALRPPLAEPYRLTASAADLAGEAPDRAAAARIAAAYARAAGHESHGLRIARGAPEGWADAAAEVLALAATLDDWRLALNGAEAALSGRAPDARSAAMVETRFRDWASRRGFEPRLQIEVVPPPLDPQAVSALLQRHADCGPLSEGGTEGVITGAVATAETAAALERALADLRGDRPLHLAITVLNPAICAVRQALPDRPAQGLSIWLGEAATGAPNLAGIYGPGDYPLVEIRLPAGMSGLALWVGLVDVTGSVLNLLPNVYSDESRIDRLGTVANGVRTIRVMPLEFQVAGGTQLFALQVEARDFGRSELVAVVSRGDLFALRRPKDESVASFTEALSALRRDDPDRLVAVTRRLLESRPSR
- protein production: failed

Sequence: MVYSTTTGRFCGLFCLRDQMPVSTNRHPYSENTMEIIVNGEARAATPMSMLELLRSLDIDPRRVAVELNHDILPKGEYESTILNDGDRIEIVHFVGGGLEHHHHHH
- protein production: not failed

Sequence: MPKAINYKANSVVYFSGDFDERVFLLNTGSIALTSIDIETGEQVTDYIKTGEFFGVKSALGNYPREESAMVLTDSIVYSFTSKEFEAFAQTNTRIILQMIKVFSRQLRTIHKQLASLLDSEEEKNPEEGLFNVMNAFYSSQHYKAAGQVGTRYKAIYPNGKYISQVDQIVRSTAEVAGRSFGNAEGHNNDAVLAHHEKPAAVTDGTVHLAYNKAEDLFEKGEFEAAYDQYHAVIEAGAGDEITDNAYIGAGKSLHSQKEYVRCLQLLTGFISQHPKSSKIGDALMYLGMCYMDMERPDKAIAFFDKAAILSGADIIGKIRELQKECSSRLQGA
- protein production: failed

From a protein production outcome set (Wang et al. 2014)
